These results are taken from PMC10303109.

In this series the target is SARS-CoV-2 spike RBD wild type (SARS-CoV-2 (Wuhan strain)) (UniProt P0DTC2). The experiment in a line: filter binding.

For orientation: Kd means the equilibrium constant for the complex coming apart. For “TATCGAGCGTCCTGCCTTTGCGGAGGUGAACCUUACGUUCAACUGGAUCGUGUGUAGGUACACCGACAGCCACCCAGAAA [AM032-0]”, the Kd (11 Nap-dU (5-[N-(1-naphthylmethyl)carboxamide]-2'-deoxyuridine) in place of dT) came out at 0.78 nM. That is a sub-nanomolar value.
Take “CTGUCGGUAAGGGAGCUAGUGUAUGCCCCUGAGUUGGGGAUAUCACCGACAG [AM047-0]”: the Kd (11 Nap-dU in place of dT) was 0.02 nM. This lies in the picomolar range.
